Laboratory results from patent US12286461B2, “Recombinant fused polypeptide and use thereof” (priority 2019, dated 2025).

What was measured:
pulmonary infections = test: Mouse pneumonia model, pneumonia caused by pulmonary infections; type: in vivo, BALB/C mice; settings: BALB/C mouse pneumonia model, nasal drip, average ± standard deviation
Source text: (§1) A mouse pneumonia model was successfully established by using a nasal drip method. BALB/C mice with a body weight of 18-24 g were selected, and then anesthetized with ether on day 0, day 1 and day 2, respectively, prepared Streptococcus pneumoniae bacteria solution, adenovirus concentrated solution, Mycoplasma pneumoniae, Chlamydia pneumoniae, protozoa and pneumonia fungi were slowly dropped into the nasal cavity of the mice, so that the bacteria solutions entered the trachea and bronchi, and the bacteria solutions were prevented from flowing into the esophagus during the operation to avoid inactivation of the bacteria solutions, so that the mouse pneumonia model was established. After the model was successfully established, the recombinant fused polypeptides according to the present invention were administered.

[1] = tested on: SD rats with bleomycin-induced pulmonary fibrosis; test: Bleomycin-induced pulmonary fibrosis animal model; type: in vivo; settings: for Survival rate (%): bleomycin 5 mg/kg intratracheal, dosage 10 mg/kg (Table 2), administration cycle 15 days from day 7 after modeling; for hydroxyproline (HYP) content in lung tissue / content of TGF-β1 in serum, difference from the model group: bleomycin pulmonary fibrosis, after 15 days; for hydroxyproline (HYP) content in lung tissue: 10 mg/kg s.c. once every five days, FIG. 1; for content of TGF-β1 in serum, difference from the model group: fused polypeptides 10 mg/kg s.c. once every five days, nintedanib 25 mg/kg intragastric once a day
Method: SD rats were anesthetized by intraperitoneal injection of 4% chloral hydrate with a concentration of 1 mL/100 g. After anesthesia, the rats were fixed and their necks were disinfected by using cotton with 75% alcohol. The skin of the rat neck was longitudinally cut with scissors, and the fascia and muscle were longitudinally bluntly torn with tweezers to expose the trachea. A syringe was inserted into the trachea to inject 5 mg/kg bleomycin, while a blank group was injected with an equal amount of normal saline. Then a rat plate was quickly erected and rotated, the rats' breathing was observed, the neck wound was sterilized after rotation and was sewn, and an amoxicillin anti-inflammatory drug was sprinkled on the suture. After the operation, the rats were put back into a dry and clean cage for resting, waiting for awakening. The rats were awakened after about 1-2 hours, and then fed normally. On the 7th day after modeling, modeling group animals randomly fell into a model group, a Nintedanib positive drug group, recombinant fused polypeptide 1, 2, 3 and 4 dosage groups, and a normal control group, and the groups were administered separately for an administration cycle of 15 days. Living situations of rats were observed every day and their weights were weighed. After administration for 15 days, the eyeballs were removed and blood was taken, the rats were dissected, and lungs were taken. The content of TGF-β1 in serum and the content of HYP in lung tissues were detected.

[2] = tested on: mice with bleomycin-induced skin fibrosis; test: Bleomycin-induced skin fibrosis model; type: in vivo, C57/BL black mice; settings: C57/BL mice, bleomycin 10 μg/mL s.c. daily for 28 days, 10 mg/kg s.c. once every five days, 6 times, FIG. 6
Method: Bleomycin (10 μg/mL) was injected subcutaneously every day for 28 days to form skin fibrosis. During the modeling period, the administration groups were given drugs for treatment. After modeling, the mice were killed on the next day, and the skin tissue of the mouse back was taken to detect the content of HYP in the skin tissue. [table]

adenovirus = test: Mouse pneumonia model, viral pneumonia; type: in vivo; settings: BALB/C mouse pneumonia model, nasal drip; average ± standard deviation
Source text: as §1

Chlamydia pneumoniae = test: Mouse pneumonia model, chlamydia pneumonia; type: in vivo; settings: BALB/C mouse pneumonia model, nasal drip; average ± standard deviation
Source text: as §1

Streptococcus pneumoniae = test: Mouse pneumonia model, bacterial pneumonia; type: in vivo; settings: BALB/C mouse pneumonia model, nasal drip; average ± standard deviation
Source text: as §1

[3] = tested on: SD rats with renal fibrosis; test: Renal fibrosis animal model (ureter ligation); type: in vivo; settings: 6 mg/kg s.c. once every five days, after 15 days
Method: A renal fibrosis animal model was established. SD rats were anesthetized with 4% chloral hydrate, injected with 1 mL/100 g intraperitoneally, fixed to an operation board, and sterilized in an operation area for further use. […] Muscular layers and abdominal walls were sewed layer by layer, the suture was disinfected with alcohol. After SD rats woke up, the rats were put into a cage for feeding. In the blank group, ureter was not ligated, and other steps were the same.
Then, the animals fell into a blank group, a model group, and recombinant fused polypeptide administration groups, and the administration was started on the second day after the operation, and was performed for 15 days. After administration for 15 days, blood was taken and supernatant was taken to detect the content of TGF-β1 in serum.

protozoa = test: Mouse pneumonia model, protozoal pneumonia; type: in vivo; settings: BALB/C mouse pneumonia model, nasal drip; average ± standard deviation
Source text: as §1

[4] = tested on: SD rats with CCl4-induced hepatic fibrosis; test: CCl4-induced hepatic fibrosis animal model; type: in vivo; settings: 40% CCl4 i.p. twice a week for 8 weeks, fused polypeptides 6 mg/kg s.c. once every five days
Method: Modeling was performed on the rats. Each group other than the blank group was injected with 40% CCl4 intraperitoneally twice a week, the first injection was performed at 3 mL/kg, and then injection was performed at 2 mL/kg. Modeling was performed for 8 weeks to induce hepatic fibrosis. After the intraperitoneal injection of CCl4 for the fourth time, the drugs were administered according to Table 3. After induction for 8 weeks, the administration was stopped. The SD rats were dissected the next day, and blood was taken. The liver tissue was stored in a refrigerator at −80° C. for further use. The expression of HYP in the hepatic tissue of rats was detected. [table]

pneumonia fungi = test: Mouse pneumonia model, fungal pneumonia; type: in vivo; settings: BALB/C mouse pneumonia model, nasal drip; average ± standard deviation
Source text: as §1

Mycoplasma pneumoniae = test: Mouse pneumonia model, mycoplasma pneumonia; type: in vivo; settings: BALB/C mouse pneumonia model, nasal drip; average ± standard deviation
Source text: as §1

[5] = tested on: mice with myocardial fibrosis; test: Isoprenaline-induced myocardial fibrosis animal model; type: in vivo; settings: BALB/c mice, isoprenaline 5 mg/kg s.c. daily for 7 days, 12 mg/kg s.c. (Table 5), after the 8th day, FIG. 5
Method: In the model group, the experimental mice were injected with isoprenaline (ISO) (5 mg/kg) subcutaneously on the back of the mice every day for 7 consecutive days, and the mice were injected with normal saline subcutaneously (200 μL/mouse) every day. In the blank group, normal saline was injected subcutaneously (200 μL/mouse) every day. […] After the 8th day, blood was taken and was centrifuged, the supernatant was taken, and the content of TGF-β1 in serum was detected.

[6] = listed as recombinant fused polypeptide II
[7] = listed as recombinant fused polypeptide III

B1: Acetyl-SDKPGGGGTSLDASIIWAMMQNGGGGLSKLGGGGSGGGGSGGGGSPRCWRGEGGGGIVRRADRAAVPGGGGRGD (protein)
chain: SDKPGGGGTSLDASIIWAMMQNGGGGLSKLGGGGSGGGGSGGGGSPRCWRGEGGGGIVRRADRAAVPGGGGRGD
modifications: N-acetyl
notes: Recombinant fused polypeptide Y-linker1-X expressed in 293 cells
Inhibitory effect, Pneumonia caused by pulmonary infections (pulmonary infections): 65.87 ± 3.19 | Inhibitory effect, Pneumonia caused by pulmonary infections (pulmonary infections; [6]): inhibitory effect | Survival rate (%) [1]: 85.7% | Survival rate (%) ([1]; listed as fused polypeptide 2): equivalent to that of the positive drug group | hydroxyproline (HYP) content in lung tissue [1]: can lower the hydroxyproline content | content of TGF-β1 in serum, difference from the model group ([1]; FIG. 2, listed as fused polypeptide 2): highly significant different from the model group (***P<0.001) | content of TGF-β1 in serum, difference from the model group ([1]; FIG. 2, listed as recombinant fused polypeptide II): can lower the TGF-β1 content | content of HYP in skin tissue, difference from the model group ([2]; listed as recombinant fused polypeptide 2, 10 mg/kg): highly significantly different from the model group (***P<0.001) | content of HYP in skin tissue, difference from the model group ([2]; listed as recombinant fused polypeptide II, 10 mg/kg): can lower the hydroxyproline content | Inhibitory effect, Viral pneumonia (adenovirus): 58.08 ± 5.27 | Inhibitory effect, Chlamydia pneumonia (Chlamydia pneumoniae): 50.21 ± 4.85 | Inhibitory effect, Bacterial pneumonia (Streptococcus pneumoniae): 49.18 ± 5.32 | content of TGF-β1 in serum, difference from the model group ([3]; FIG. 4, listed as recombinant fused polypeptide 2, 6 mg/kg): highly significantly different from the model group (***P<0.001) | content of TGF-β1 in serum, difference from the model group ([3]; FIG. 4, listed as recombinant fused polypeptide II, 6 mg/kg): can lower the TGF-β1 content | Inhibitory effect, Protozoal pneumonia (protozoa): 66.13 ± 5.36 | content of HYP in liver tissue, difference from the model group ([4]; FIG. 3, listed as Recombinant fused polypeptide 2): highly significantly different from the model group (***P<0.001) | content of HYP in liver tissue, difference from the model group ([4]; FIG. 3, listed as recombinant fused polypeptide II): can lower the HYP content | Inhibitory effect, Fungal pneumonia (pneumonia fungi): 63.07 ± 3.02 | Inhibitory effect, Mycoplasma pneumonia (Mycoplasma pneumoniae): 45.72 ± 5.69 | content of TGF-β1 in serum, difference from the model group ([5]; listed as recombinant fused polypeptide 2): highly significantly different from the model group (***P<0.001) | content of TGF-β1 in serum, difference from the model group [5, 6]: can lower the TGF-β1 content

B2: PRCWRGEGGGGIVRRADRAAVPGGGGRGDAEAAAKEAAAKEAAAKEAAAKKSDKPGGGGTSLDASIIWAMMQNGGGGLSKL (protein)
chain: PRCWRGEGGGGIVRRADRAAVPGGGGRGDAEAAAKEAAAKEAAAKEAAAKKSDKPGGGGTSLDASIIWAMMQNGGGGLSKL
notes: Recombinant fused polypeptide X-linker2-Y expressed in 293 cells
Inhibitory effect, Pneumonia caused by pulmonary infections (pulmonary infections): 58.81 ± 4.10 | Inhibitory effect, Pneumonia caused by pulmonary infections (pulmonary infections; [7]): inhibitory effect | Survival rate (%) [1]: 85.7% | Survival rate (%) ([1]; listed as fused polypeptide 3): equivalent to that of the positive drug group | hydroxyproline (HYP) content in lung tissue [1]: can lower the hydroxyproline content | content of TGF-β1 in serum, difference from the model group ([1]; FIG. 2, listed as fused polypeptide 3): highly significantly different from the model group (**P<0.01) | content of TGF-β1 in serum, difference from the model group ([1]; FIG. 2, listed as recombinant fused polypeptide III): can lower the TGF-β1 content | content of HYP in skin tissue, difference from the model group ([2]; listed as recombinant fused polypeptide 3, 10 mg/kg): highly significantly different from the model group (**P<0.01) | content of HYP in skin tissue, difference from the model group ([2]; listed as recombinant fused polypeptide III, 10 mg/kg): can lower the hydroxyproline content | Inhibitory effect, Viral pneumonia (adenovirus): 69.54 ± 7.49 | Inhibitory effect, Chlamydia pneumonia (Chlamydia pneumoniae): 55.78 ± 4.32 | Inhibitory effect, Bacterial pneumonia (Streptococcus pneumoniae): 48.79 ± 7.26 | content of TGF-β1 in serum, difference from the model group ([3]; FIG. 4, listed as recombinant fused polypeptide 3, 6 mg/kg): highly significantly different from the model group (**P<0.01) | content of TGF-β1 in serum, difference from the model group ([3]; FIG. 4, listed as recombinant fused polypeptide III, 6 mg/kg): can lower the TGF-β1 content | Inhibitory effect, Protozoal pneumonia (protozoa): 68.29 ± 4.70 | content of HYP in liver tissue, difference from the model group ([4]; FIG. 3, listed as Recombinant fused polypeptide 3): highly significantly different from the model group (***P<0.001) | content of HYP in liver tissue, difference from the model group ([4]; FIG. 3, listed as recombinant fused polypeptide III): can lower the HYP content | Inhibitory effect, Fungal pneumonia (pneumonia fungi): 65.98 ± 3.64 | Inhibitory effect, Mycoplasma pneumonia (Mycoplasma pneumoniae): 45.53 ± 4.33 | content of TGF-β1 in serum, difference from the model group ([5]; listed as recombinant fused polypeptide 3): significantly different from the model group (**P<0.01) | content of TGF-β1 in serum, difference from the model group [5, 7]: can lower the TGF-β1 content
